Usually stoichiometry N stands for the number of molecules, sites or subunits per partner or assembly.

This is an account of results in article PMC11244893 (bioRxiv, 2024).

The series deals with the molecule itself. Briefly: SEC + other: diffusion NMR.

B1: full-length, wild-type phosphate starvation response like protein-4 (PHL4) (natural protein, Arabidopsis, UniProt Q8GXC2 1-397, looked up)
chain: MIPNDDDDANSMKNYPLNDDDANSMKNYPLNDDDANSMENYPLRSIPTELSHTCSLIPPSLPNPSEAAADMSFNSELNQIMARPCDMLPANGGAVGHNPFLEPGFNCPETTDWIPSPLPHIYFPSGSPNLIMEDGVIDEIHKQSDLPLWYDDLITTDEDPLMSSILGDLLLDTNFNSASKVQQPSMQSQIQQPQAVLQQPSSCVELRPLDRTVSSNSNNNSNSNNAAAAAKGRMRWTPELHEVFVDAVNQLGGSNEATPKGVLKHMKVEGLTIFHVKSHLQKYRTAKYIPVPSEGSPEARLTPLEQITSDDTKRGIDITETLRIQMEHQKKLHEQLESLRTMQLRIEEQGKALLMMIEKQNMGFGGPEQGEKTSAKTPENGSEESESPRPKRPRNEE
With B1, the “stoichiometry N” value stood at 4.
